Values quoted from earlier work, collected in publication PMC12799613.

Experiments:
TRPC5 (Homo sapiens) = TRPC5 (Homo sapiens) (UniProt Q9UL62)
[1] = molecular target: TRPM3 peptide (Mus musculus) (UniProt J9SQF3)
[2] = molecular target: GIRK2 (Kir3.2), first Gβγ binding (Mus musculus) (UniProt P48542)
[3] = molecular target: GIRK2 (Kir3.2), fourth Gβγ binding (Mus musculus) (UniProt P48542)
Chain of GIRK2 (Kir3.2), fourth Gβγ binding (Mus musculus) (P48542 whole entry): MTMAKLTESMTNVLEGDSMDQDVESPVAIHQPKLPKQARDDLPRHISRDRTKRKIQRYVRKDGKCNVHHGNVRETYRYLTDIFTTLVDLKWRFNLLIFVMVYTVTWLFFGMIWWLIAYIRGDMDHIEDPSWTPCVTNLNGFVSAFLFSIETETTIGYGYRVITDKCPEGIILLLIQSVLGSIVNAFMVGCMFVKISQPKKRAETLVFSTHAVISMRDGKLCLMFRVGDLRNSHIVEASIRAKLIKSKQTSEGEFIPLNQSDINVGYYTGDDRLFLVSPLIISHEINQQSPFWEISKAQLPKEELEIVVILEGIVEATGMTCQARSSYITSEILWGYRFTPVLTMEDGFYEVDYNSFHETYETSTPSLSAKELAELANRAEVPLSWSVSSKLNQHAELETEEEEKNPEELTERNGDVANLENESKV

Chain of Gβ1γ2 (P62873 2-340): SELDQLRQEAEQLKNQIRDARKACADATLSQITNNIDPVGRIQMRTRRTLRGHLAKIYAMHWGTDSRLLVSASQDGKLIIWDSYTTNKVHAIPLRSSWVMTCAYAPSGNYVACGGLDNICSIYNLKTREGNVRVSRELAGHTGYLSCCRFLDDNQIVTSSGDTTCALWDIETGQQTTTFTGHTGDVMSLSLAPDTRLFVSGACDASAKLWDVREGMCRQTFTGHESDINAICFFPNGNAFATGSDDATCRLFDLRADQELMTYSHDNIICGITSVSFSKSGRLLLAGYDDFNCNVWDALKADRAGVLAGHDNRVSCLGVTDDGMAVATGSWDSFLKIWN
Chain of Gβ1γ2 (P59768 2-68, further chain): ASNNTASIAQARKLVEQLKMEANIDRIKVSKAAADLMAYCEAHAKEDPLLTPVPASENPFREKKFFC
Chain of Gαi3 (P08754 2-354): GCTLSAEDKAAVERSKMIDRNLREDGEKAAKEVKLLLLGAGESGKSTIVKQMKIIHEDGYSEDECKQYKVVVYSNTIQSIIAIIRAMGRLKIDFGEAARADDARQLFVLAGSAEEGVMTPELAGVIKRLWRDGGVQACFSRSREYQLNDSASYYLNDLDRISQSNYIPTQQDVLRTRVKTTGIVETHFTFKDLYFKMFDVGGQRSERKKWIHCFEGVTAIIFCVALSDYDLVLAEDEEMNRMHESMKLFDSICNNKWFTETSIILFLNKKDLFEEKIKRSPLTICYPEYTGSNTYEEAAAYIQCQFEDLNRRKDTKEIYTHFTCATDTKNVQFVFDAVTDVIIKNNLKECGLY
Chain of TRPM3 peptide (Mus musculus) (J9SQF3 whole entry): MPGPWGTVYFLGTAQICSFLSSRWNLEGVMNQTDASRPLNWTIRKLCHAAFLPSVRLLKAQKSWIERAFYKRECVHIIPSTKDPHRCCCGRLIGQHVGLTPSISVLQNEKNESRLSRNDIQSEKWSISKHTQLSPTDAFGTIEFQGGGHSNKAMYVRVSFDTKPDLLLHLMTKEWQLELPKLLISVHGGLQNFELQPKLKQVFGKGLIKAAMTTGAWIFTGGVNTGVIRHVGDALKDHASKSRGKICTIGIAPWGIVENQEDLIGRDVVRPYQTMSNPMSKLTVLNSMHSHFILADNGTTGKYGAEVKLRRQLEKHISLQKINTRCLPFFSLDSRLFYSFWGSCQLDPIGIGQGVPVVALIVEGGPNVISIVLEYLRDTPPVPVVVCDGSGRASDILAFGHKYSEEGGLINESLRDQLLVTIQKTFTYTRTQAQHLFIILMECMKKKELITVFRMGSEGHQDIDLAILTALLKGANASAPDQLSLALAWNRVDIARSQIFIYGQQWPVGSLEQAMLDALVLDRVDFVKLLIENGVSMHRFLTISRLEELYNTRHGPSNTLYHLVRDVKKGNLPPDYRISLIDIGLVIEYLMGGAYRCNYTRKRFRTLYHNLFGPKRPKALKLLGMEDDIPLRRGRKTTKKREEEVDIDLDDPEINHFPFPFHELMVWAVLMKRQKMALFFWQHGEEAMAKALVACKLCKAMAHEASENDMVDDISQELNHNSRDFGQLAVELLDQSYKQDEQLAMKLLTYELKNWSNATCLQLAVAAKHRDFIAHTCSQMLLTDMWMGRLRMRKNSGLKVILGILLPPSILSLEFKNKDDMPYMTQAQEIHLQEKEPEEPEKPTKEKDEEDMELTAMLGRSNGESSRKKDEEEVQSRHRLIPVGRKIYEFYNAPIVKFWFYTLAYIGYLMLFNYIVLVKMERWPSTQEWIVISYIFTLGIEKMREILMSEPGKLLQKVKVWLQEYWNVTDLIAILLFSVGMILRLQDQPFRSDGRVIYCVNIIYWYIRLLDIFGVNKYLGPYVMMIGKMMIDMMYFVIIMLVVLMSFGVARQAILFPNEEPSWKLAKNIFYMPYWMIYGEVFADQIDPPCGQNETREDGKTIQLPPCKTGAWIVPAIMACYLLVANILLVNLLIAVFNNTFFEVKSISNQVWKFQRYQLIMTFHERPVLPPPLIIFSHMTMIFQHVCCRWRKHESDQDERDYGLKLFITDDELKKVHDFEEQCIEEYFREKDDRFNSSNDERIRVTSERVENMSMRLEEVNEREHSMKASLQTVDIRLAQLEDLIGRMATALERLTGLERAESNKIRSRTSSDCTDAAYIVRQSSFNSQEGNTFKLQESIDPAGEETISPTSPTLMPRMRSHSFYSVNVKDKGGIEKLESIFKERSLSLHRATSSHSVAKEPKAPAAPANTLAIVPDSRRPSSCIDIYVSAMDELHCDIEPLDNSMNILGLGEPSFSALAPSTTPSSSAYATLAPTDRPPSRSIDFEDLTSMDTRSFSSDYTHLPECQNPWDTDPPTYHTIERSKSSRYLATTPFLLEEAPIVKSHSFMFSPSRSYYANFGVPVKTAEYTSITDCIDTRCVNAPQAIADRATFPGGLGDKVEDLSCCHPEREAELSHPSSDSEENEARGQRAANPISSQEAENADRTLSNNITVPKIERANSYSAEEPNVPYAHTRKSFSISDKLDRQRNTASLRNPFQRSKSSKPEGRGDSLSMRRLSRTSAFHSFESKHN
Chain of GIRK2 (Kir3.2), first Gβγ binding (Mus musculus) (P48542 whole entry): as the sequence (P48542 whole entry) above
Chain of TRPC5 (Homo sapiens) (Q9UL62 whole entry): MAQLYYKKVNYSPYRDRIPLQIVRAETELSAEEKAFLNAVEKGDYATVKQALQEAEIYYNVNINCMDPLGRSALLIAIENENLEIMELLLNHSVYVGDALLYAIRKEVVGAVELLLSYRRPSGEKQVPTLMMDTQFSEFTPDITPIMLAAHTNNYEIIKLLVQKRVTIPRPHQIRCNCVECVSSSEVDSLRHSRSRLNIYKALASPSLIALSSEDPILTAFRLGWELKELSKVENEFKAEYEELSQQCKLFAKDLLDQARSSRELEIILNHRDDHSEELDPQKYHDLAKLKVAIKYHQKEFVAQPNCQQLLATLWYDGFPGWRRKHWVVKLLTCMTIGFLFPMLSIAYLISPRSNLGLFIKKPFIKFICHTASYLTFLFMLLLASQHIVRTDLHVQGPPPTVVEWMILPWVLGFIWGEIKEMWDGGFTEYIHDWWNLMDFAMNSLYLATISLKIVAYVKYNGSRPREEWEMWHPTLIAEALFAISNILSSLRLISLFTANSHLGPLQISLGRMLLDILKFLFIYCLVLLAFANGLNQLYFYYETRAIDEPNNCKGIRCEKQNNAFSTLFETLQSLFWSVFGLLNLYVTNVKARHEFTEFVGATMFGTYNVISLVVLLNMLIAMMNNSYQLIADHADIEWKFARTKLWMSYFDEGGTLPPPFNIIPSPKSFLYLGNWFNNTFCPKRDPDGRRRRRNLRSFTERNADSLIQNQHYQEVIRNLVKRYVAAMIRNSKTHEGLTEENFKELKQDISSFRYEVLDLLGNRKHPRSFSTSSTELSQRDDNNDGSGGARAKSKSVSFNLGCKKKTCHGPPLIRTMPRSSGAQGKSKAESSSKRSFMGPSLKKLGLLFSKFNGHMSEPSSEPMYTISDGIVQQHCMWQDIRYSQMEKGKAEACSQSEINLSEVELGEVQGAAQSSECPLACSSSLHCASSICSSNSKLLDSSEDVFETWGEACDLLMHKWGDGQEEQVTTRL

Substance	Kd (TRPC5 (Homo sapiens))	Kd [1]	Kd [2]	Kd [3]
Gαi3 (from UniProt P08754)	0.91 µM			
Gβ1γ2 (from UniProt P62873)		56 µM	1900 µM	50 µM
